Data taken from patent US7674604 (CENTER FOR BLOOD RESEARCH, dated 2010).

How the values were obtained:
[1] = biological target: T1, ICAM-1 purified from human tonsil, coated on 96-well plates (human, UniProt P05362 28-532); assay: competition: soluble I-domain against adhesion of K562 cells with wild-type LFA-1 (activated by mAb CBRLFA-1/2) to plate-coated ICAM-1; cells bound (% of input)
T1 construct: mature; also called immobilized ICAM-1

murine ICAM-1 = murine ICAM-1 (murine, UniProt P13597 28-485, limits assumed); assay: cell-based or functional assay

IC50 (read off the curve) [1]: ~200 nM
IC50 (read off the curve), PMA-induced homotypic aggregation of EL-4 cells (aggregation score 0 to 5) (murine ICAM-1): ~1000 nM
B1: recombinant soluble αL I-domain K287C/K294C (G128 to Y307) stabilized in the open conformation, made in E. coli (receptor)
chain: GNVDLVFLFDGSMSLQPDEFQKILDFMKDVMKKLSNTSYQFAAVQFSTSYKTEFDFSDYVKRKDPDALLKHVKHMLLLTNTFGAINYVATEVFREELGARPDATKVLIIITDGEATDSGNIDAAKDIIRYIIGIGKHFQTKESQETLHKFASKPASEFVCILDTFECLKDLFTELQKKIY
modifications: chain 1: disulfide between C160 and C167 (mature C287, C294)
notes: also called open I-domain; soluble open I-domain
